Article doi:10.1101/2025.09.05.674436 (bioRxiv, 2025)

Tests used:
[1] = molecular target: UBE2D3 WT (UniProt P61077 1-147); assay: ITC
[2] = molecular target: the molecule itself; assay: native gel or EMSA
[3] = molecular target: the molecule itself; assay: semi-denaturing detergent agarose gel electrophoresis
[4] = molecular target: the molecule itself; assay: SDS-PAGE of LDS-resistant high molecular weight species

Sequence of UBE2D3 WT (P61077 whole entry): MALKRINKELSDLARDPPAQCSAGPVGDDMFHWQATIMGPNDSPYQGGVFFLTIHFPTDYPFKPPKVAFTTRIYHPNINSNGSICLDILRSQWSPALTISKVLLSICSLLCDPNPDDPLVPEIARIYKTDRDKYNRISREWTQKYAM

B1: ZNFX1 Z-RING (residues 1533-1631), wild type (domain or fragment)
chain: RPPCYVPCTKLLVCGHPCIGLCGEPCPKKCRICHMDEVTQIFFGFEDEPDARFVQLEDCSHIFEVQALDRYMNEQKDDEVAIRLKVCPICQVPIRKNLR
**Q.** B1 was tested. Which Kd [1] did it give?
**A.** 41 µM

**Q.** And the dH [1]?
**A.** 2.04 kcal/mol

B2: WT-ZNFX1 reconstituted in T-REx-293 ZNFX1 KO cells (enzyme)
chain: MEERRPHLDARPRNSHTNHRGPVDGELPPRARNQANNPPANALRGGASHPGRHPRANNHPAAYWQREERFRAMGRNPHQGRRNQEGHASDEARDQRHDQENDTRWRNGNQDCRNRRPPWSNDNFQQWRTPHQKPTEQPQQAKKLGYKFLESLLQKDPSEVVITLATSLGLKELLSHSSMKSNFLELICQVLRKACSSKMDRQSVLHVLGILKNSKFLKVCLPAYVVGMITEPIPDIRNQYPEHISNIISLLQDLVSVFPASSVQETSMLVSLLPTSLNALRASGVDIEEETEKNLEKVQTIIEHLQEKRREGTLRVDTYTLVQPEAEDHVESYRTMPIYPTYNEVHLDERPFLRPNIISGKYDSTAIYLDTHFRLLREDFVRPLREGILELLQSFEDQGLRKRKFDDIRIYFDTRIITPMCSSSGIVYKVQFDTKPLKFVRWQNSKRLLYGSLVCMSKDNFETFLFATVSNREQEDLCRGIVQLCFNEQSQQLLAEVQPSDSFLMVETTAYFEAYRHVLEGLQEVQEEDVPFQRNIVECNSHVKEPRYLLMGGRYDFTPLIENPSATGEFLRNVEGLRHPRINVLDPGQWPSKEALKLDDSQMEALQFALTRELAIIQGPPGTGKTYVGLKIVQALLTNESVWQISLQKFPILVVCYTNHALDQFLEGIYNCQKTSIVRVGGRSNSEILKQFTLRELRNKREFRRNLPMHLRRAYMSIMTQMKESEQELHEGAKTLECTMRGVLREQYLQKYISPQHWESLMNGPVQDSEWICFQHWKHSMMLEWLGLGVGSFTQSVSPAGPENTAQAEGDEEEEGEEESSLIEIAEEADLIQADRVIEEEEVVRPQRRKKEESGADQELAKMLLAMRLDHCGTGTAAGQEQATGEWQTQRNQKKKMKKRVKDELRKLNTMTAAEANEIEDVWQLDLSSRWQLYRLWLQLYQADTRRKILSYERQYRTSAERMAELRLQEDLHILKDAQVVGMTTTGAAKYRQILQKVEPRIVIVEEAAEVLEAHTIATLSKACQHLILIGDHQQLRPSANVYDLAKNFNLEVSLFERLVKVNIPFVRLNYQHRMCPEIARLLTPHIYQDLENHPSVLKYEKIKGVSSNLFFVEHNFPEQEIQEGKSHQNQHEAHFVVELCKYFLCQEYLPSQITILTTYTGQLFCLRKLMPAKTFAGVRVHVVDKYQGEENDIILLSLVRSNQEGKVGFLQISNRICVALSRAKKGMYCIGNMQMLAKVPLWSKIIHTLRENNQIGPMLRLCCQNHPETHTLVSKASDFQKVPEGGCSLPCEFRLGCGHVCTRACHPYDSSHKEFQCMKPCQKVICQEGHRCPLVCFQECQPCQVKVPKTIPRCGHEQMVPCSVPESDFCCQEPCSKSLRCGHRCSHPCGEDCVQLCSEMVTIKLKCGHSQPVKCGHVEGLLYGGLLVKCTTKCGTILDCGHPCPGSCHSCFEGRFHERCQQPCKRLLICSHKCQEPCIGECPPCQRTCQNRCVHSQCKKKCGELCSPCVEPCVWRCQHYQCTKLCSEPCNRPPCYVPCTKLLVCGHPCIGLCGEPCPKKCRICHMDEVTQIFFGFEDEPDARFVQLEDCSHIFEVQALDRYMNEQKDDEVAIRLKVCPICQVPIRKNLRYGTSIKQRLEEIEIIKEKIQGSAGEIATSQERLKALLERKSLLHQLLPEDFLMLKEKLAQKNLSVKDLGLVENYISFYDHLASLWDSLKKMHVLEEKRVRTRLEQVHEWLAKKRLSFTSQELSDLRSEIQRLTYLVNLLTRYKIAEKKVKDSIAVEVYSVQNILEKTCKFTQEDEQLVQEKMEALKATLPCSGLGISEEERVQIVSAIGYPRGHWFKCRNGHIYVIGDCGGAMERGTCPDCKEVIGGTNHTLERSNQLASEMDGAQHAAWSDTANNLMNFEEIQGMM
**Q.** B2 was tested. Which “stoichiometry N” value [2] did it give?
**A.** 2

B3: full length ZNFX1 expressed in insect cells (ZNFX1FL) (enzyme)
chain: MEERRPHLDARPRNSHTNHRGPVDGELPPRARNQANNPPANALRGGASHPGRHPRANNHPAAYWQREERFRAMGRNPHQGRRNQEGHASDEARDQRHDQENDTRWRNGNQDCRNRRPPWSNDNFQQWRTPHQKPTEQPQQAKKLGYKFLESLLQKDPSEVVITLATSLGLKELLSHSSMKSNFLELICQVLRKACSSKMDRQSVLHVLGILKNSKFLKVCLPAYVVGMITEPIPDIRNQYPEHISNIISLLQDLVSVFPASSVQETSMLVSLLPTSLNALRASGVDIEEETEKNLEKVQTIIEHLQEKRREGTLRVDTYTLVQPEAEDHVESYRTMPIYPTYNEVHLDERPFLRPNIISGKYDSTAIYLDTHFRLLREDFVRPLREGILELLQSFEDQGLRKRKFDDIRIYFDTRIITPMCSSSGIVYKVQFDTKPLKFVRWQNSKRLLYGSLVCMSKDNFETFLFATVSNREQEDLCRGIVQLCFNEQSQQLLAEVQPSDSFLMVETTAYFEAYRHVLEGLQEVQEEDVPFQRNIVECNSHVKEPRYLLMGGRYDFTPLIENPSATGEFLRNVEGLRHPRINVLDPGQWPSKEALKLDDSQMEALQFALTRELAIIQGPPGTGKTYVGLKIVQALLTNESVWQISLQKFPILVVCYTNHALDQFLEGIYNCQKTSIVRVGGRSNSEILKQFTLRELRNKREFRRNLPMHLRRAYMSIMTQMKESEQELHEGAKTLECTMRGVLREQYLQKYISPQHWESLMNGPVQDSEWICFQHWKHSMMLEWLGLGVGSFTQSVSPAGPENTAQAEGDEEEEGEEESSLIEIAEEADLIQADRVIEEEEVVRPQRRKKEESGADQELAKMLLAMRLDHCGTGTAAGQEQATGEWQTQRNQKKKMKKRVKDELRKLNTMTAAEANEIEDVWQLDLSSRWQLYRLWLQLYQADTRRKILSYERQYRTSAERMAELRLQEDLHILKDAQVVGMTTTGAAKYRQILQKVEPRIVIVEEAAEVLEAHTIATLSKACQHLILIGDHQQLRPSANVYDLAKNFNLEVSLFERLVKVNIPFVRLNYQHRMCPEIARLLTPHIYQDLENHPSVLKYEKIKGVSSNLFFVEHNFPEQEIQEGKSHQNQHEAHFVVELCKYFLCQEYLPSQITILTTYTGQLFCLRKLMPAKTFAGVRVHVVDKYQGEENDIILLSLVRSNQEGKVGFLQISNRICVALSRAKKGMYCIGNMQMLAKVPLWSKIIHTLRENNQIGPMLRLCCQNHPETHTLVSKASDFQKVPEGGCSLPCEFRLGCGHVCTRACHPYDSSHKEFQCMKPCQKVICQEGHRCPLVCFQECQPCQVKVPKTIPRCGHEQMVPCSVPESDFCCQEPCSKSLRCGHRCSHPCGEDCVQLCSEMVTIKLKCGHSQPVKCGHVEGLLYGGLLVKCTTKCGTILDCGHPCPGSCHSCFEGRFHERCQQPCKRLLICSHKCQEPCIGECPPCQRTCQNRCVHSQCKKKCGELCSPCVEPCVWRCQHYQCTKLCSEPCNRPPCYVPCTKLLVCGHPCIGLCGEPCPKKCRICHMDEVTQIFFGFEDEPDARFVQLEDCSHIFEVQALDRYMNEQKDDEVAIRLKVCPICQVPIRKNLRYGTSIKQRLEEIEIIKEKIQGSAGEIATSQERLKALLERKSLLHQLLPEDFLMLKEKLAQKNLSVKDLGLVENYISFYDHLASLWDSLKKMHVLEEKRVRTRLEQVHEWLAKKRLSFTSQELSDLRSEIQRLTYLVNLLTRYKIAEKKVKDSIAVEVYSVQNILEKTCKFTQEDEQLVQEKMEALKATLPCSGLGISEEERVQIVSAIGYPRGHWFKCRNGHIYVIGDCGGAMERGTCPDCKEVIGGTNHTLERSNQLASEMDGAQHAAWSDTANNLMNFEEIQGMM
**Q.** Does B3 bind [3]?
**A.** binds

B4: ZNFX1FL F1210A/R1216A (FARA mutant) (enzyme)
chain: MEERRPHLDARPRNSHTNHRGPVDGELPPRARNQANNPPANALRGGASHPGRHPRANNHPAAYWQREERFRAMGRNPHQGRRNQEGHASDEARDQRHDQENDTRWRNGNQDCRNRRPPWSNDNFQQWRTPHQKPTEQPQQAKKLGYKFLESLLQKDPSEVVITLATSLGLKELLSHSSMKSNFLELICQVLRKACSSKMDRQSVLHVLGILKNSKFLKVCLPAYVVGMITEPIPDIRNQYPEHISNIISLLQDLVSVFPASSVQETSMLVSLLPTSLNALRASGVDIEEETEKNLEKVQTIIEHLQEKRREGTLRVDTYTLVQPEAEDHVESYRTMPIYPTYNEVHLDERPFLRPNIISGKYDSTAIYLDTHFRLLREDFVRPLREGILELLQSFEDQGLRKRKFDDIRIYFDTRIITPMCSSSGIVYKVQFDTKPLKFVRWQNSKRLLYGSLVCMSKDNFETFLFATVSNREQEDLCRGIVQLCFNEQSQQLLAEVQPSDSFLMVETTAYFEAYRHVLEGLQEVQEEDVPFQRNIVECNSHVKEPRYLLMGGRYDFTPLIENPSATGEFLRNVEGLRHPRINVLDPGQWPSKEALKLDDSQMEALQFALTRELAIIQGPPGTGKTYVGLKIVQALLTNESVWQISLQKFPILVVCYTNHALDQFLEGIYNCQKTSIVRVGGRSNSEILKQFTLRELRNKREFRRNLPMHLRRAYMSIMTQMKESEQELHEGAKTLECTMRGVLREQYLQKYISPQHWESLMNGPVQDSEWICFQHWKHSMMLEWLGLGVGSFTQSVSPAGPENTAQAEGDEEEEGEEESSLIEIAEEADLIQADRVIEEEEVVRPQRRKKEESGADQELAKMLLAMRLDHCGTGTAAGQEQATGEWQTQRNQKKKMKKRVKDELRKLNTMTAAEANEIEDVWQLDLSSRWQLYRLWLQLYQADTRRKILSYERQYRTSAERMAELRLQEDLHILKDAQVVGMTTTGAAKYRQILQKVEPRIVIVEEAAEVLEAHTIATLSKACQHLILIGDHQQLRPSANVYDLAKNFNLEVSLFERLVKVNIPFVRLNYQHRMCPEIARLLTPHIYQDLENHPSVLKYEKIKGVSSNLFFVEHNFPEQEIQEGKSHQNQHEAHFVVELCKYFLCQEYLPSQITILTTYTGQLFCLRKLMPAKTFAGVRVHVVDKYQGEENDIILLSLVRSNQEGKVGALQISNAICVALSRAKKGMYCIGNMQMLAKVPLWSKIIHTLRENNQIGPMLRLCCQNHPETHTLVSKASDFQKVPEGGCSLPCEFRLGCGHVCTRACHPYDSSHKEFQCMKPCQKVICQEGHRCPLVCFQECQPCQVKVPKTIPRCGHEQMVPCSVPESDFCCQEPCSKSLRCGHRCSHPCGEDCVQLCSEMVTIKLKCGHSQPVKCGHVEGLLYGGLLVKCTTKCGTILDCGHPCPGSCHSCFEGRFHERCQQPCKRLLICSHKCQEPCIGECPPCQRTCQNRCVHSQCKKKCGELCSPCVEPCVWRCQHYQCTKLCSEPCNRPPCYVPCTKLLVCGHPCIGLCGEPCPKKCRICHMDEVTQIFFGFEDEPDARFVQLEDCSHIFEVQALDRYMNEQKDDEVAIRLKVCPICQVPIRKNLRYGTSIKQRLEEIEIIKEKIQGSAGEIATSQERLKALLERKSLLHQLLPEDFLMLKEKLAQKNLSVKDLGLVENYISFYDHLASLWDSLKKMHVLEEKRVRTRLEQVHEWLAKKRLSFTSQELSDLRSEIQRLTYLVNLLTRYKIAEKKVKDSIAVEVYSVQNILEKTCKFTQEDEQLVQEKMEALKATLPCSGLGISEEERVQIVSAIGYPRGHWFKCRNGHIYVIGDCGGAMERGTCPDCKEVIGGTNHTLERSNQLASEMDGAQHAAWSDTANNLMNFEEIQGMM
**Q.** Does B4 bind [4]?
**A.** binds
